According to US20220073621A1 (EUCURE BEIJING BIOPHARMA, published 2022):

molecular target: T1, hPD-L1-His (human, UniProt Q9NZQ7 19-238); assay: SPR (Biacore T200), antibody on Protein A chip, hPD-L1-His injected, 1:1 fit
T1 construct: Bought protein; also called hPD-L1-His (manufactured by Edison); not shown: His tag
Experimental: Subsequently, the binding affinity of the anti-PD-L1 chimeric antibody, humanized antibody, and marketed control antibody to hPD-L1-His (manufactured by Edison) were determined by surface plasmon resonance (Biacore T200 biosensor, Biacore, INC, Piscataway N.J.) equipped with pre-immobilized Protein A sensor chips.
The detection results were read after the chip was regenerated with pH 2.0 glycine (30 μl/min, 10-20 s). Kinetic association rates (kon) and dissociation rates (koff) were obtained simultaneously by fitting the data globally to a 1:1 Langmuir binding model (Karlsson, R. Roos, H. Fagerstam, L. Petersson, B., 1994. Methods Enzymology 6. 99-110) using Biacore T200 Evaluation Software 3.0. Affinities were deduced from the quotient of the kinetic rate constants (KD=koff/kon).

T1 sequence (Q9NZQ7 19-238 limits assumed): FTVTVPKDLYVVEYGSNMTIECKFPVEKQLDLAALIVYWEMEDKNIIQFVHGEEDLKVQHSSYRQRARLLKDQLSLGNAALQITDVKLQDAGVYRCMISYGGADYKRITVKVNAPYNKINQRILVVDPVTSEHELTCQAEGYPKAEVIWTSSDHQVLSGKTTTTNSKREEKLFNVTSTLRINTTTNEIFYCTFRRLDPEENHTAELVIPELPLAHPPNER

Row | Binder | Kd [pM] | koff [s⁻¹] | kon [M⁻¹ s⁻¹]
1 | 17-7E4-mHvKv-IgG1 (antibody, V domains shown) VH: QVQLQQSGAELVRPGVSVKISCKGSGFKFTDYAIHWVKQSHAKSLEWIGVISIYYGEASYNQKFKDKATLTVDTSSSTAYMELARLTSEDSAIYYCAREDYYGSSSYFDYWGQGTALTVSS VL: not shown | 5330 | 0.000805 | 151000
2 | 07-6A11-mHvKv-IgG1 (antibody, V domains shown) VH: DVQLVESGGGLVQPGGSRKLSCAASGFTFSSFGMHWVRQAPEKGLEWVAYISSGSNTIYYADTVKGRFTISRDNPKNTLFLQMTSLRSEDTAIYYCTRNGYDGWYAMDYWGQGTSVTVSS VL: QIVLTQSPAIMSASPGEKVTMTCSASSSVSYIHWFQQKSGTSPKRWIYDTSKLASGVPARFSGRGSGTSYSLTISSMEAEDAATYYCQQWSTNPFTFGSGTKLEIK | 3570 | 0.0009 | 252000
3 | 3F2-H2K2-IgG1 (antibody, V domains shown) VH: DVQLQESGPGLVKPSETLSLTCTVSGYSITSGYNWHWIRQFPGNGLEWMGYIHHSSITNYNPSLKSRITISRDTSKNQFSLKLSSVTAADTATFYCAREGYDYDWFAYWGQGTLVTVSS VL: DIVLTQSPDFQSVTPKEKVTLSCRASQSISNNLHWYQQKPDESPKLLIKYASQSISGIPSRFSGSGSGTDFTLTINSVEAEDFAMYFCQQSKSWPFTFGQGTRLEIK | 810 | 0.000946 | 1.17e+06
4 | 3F2-H2K1-IgG1 (antibody, V domains shown) VH: DVQLQESGPGLVKPSETLSLTCTVSGYSITSGYNWHWIRQFPGNGLEWMGYIHHSSITNYNPSLKSRITISRDTSKNQFSLKLSSVTAADTATFYCAREGYDYDWFAYWGQGTLVTVSS VL: DIVLTQSPDFQSVTPKEKVTITCRASQSISNNLHWYQQKPDESPKLLIKYASQSISGIPSRFSGSGSGTDFTLTINSVEAEDFAMYFCQQSKSWPFTFGQGTRLEIK | 700 | 0.000792 | 1.13e+06
5 | 3F2-H1K1-IgG1 (antibody, V domains shown) VH: QVQLQESGPGLVKPSETLSLTCTVSGYSITSGYNWHWIRQFPGNGLEWMGYIHHSSITNYNPSLKSRITISRDTSKNQFSLKLSSVTAADTATYYCAREGYDYDWFAYWGQGTLVTVSS VL: DIVLTQSPDFQSVTPKEKVTITCRASQSISNNLHWYQQKPDESPKLLIKYASQSISGIPSRFSGSGSGTDFTLTINSVEAEDFAMYFCQQSKSWPFTFGQGTRLEIK | 787 | 0.000772 | 981000
6 | 3F2-H3K1-IgG1 (antibody, V domains shown) VH: DVQLQESGPGLVKPSETLSLTCTVSGYSITSGYNWHWIRQFPGNGLEWMGYIHHSSITNYNPSLKSRITISRDTSKNQFSLKLSSVTAEDTATFYCAREGYDYDWFAYWGQGTLVTVSS VL: DIVLTQSPDFQSVTPKEKVTITCRASQSISNNLHWYQQKPDESPKLLIKYASQSISGIPSRFSGSGSGTDFTLTINSVEAEDFAMYFCQQSKSWPFTFGQGTRLEIK | 699 | 0.000793 | 1.13e+06
7 | 3F2-H1K3-IgG1 (antibody, V domains shown) VH: QVQLQESGPGLVKPSETLSLTCTVSGYSITSGYNWHWIRQFPGNGLEWMGYIHHSSITNYNPSLKSRITISRDTSKNQFSLKLSSVTAADTATYYCAREGYDYDWFAYWGQGTLVTVSS VL: DIVLTQSPDTQSVTPKESVTLSCRASQSISNNLHWYQQKSHESPKLLIKYASQSISGIPSRFSGSGSGTDFTLTINSVEAEDFAMYFCQQSKSWPFTFGQGTRLEIK | 805 | 0.000874 | 1.09e+06
8 | 3F2-H2K3-IgG1 (antibody, V domains shown) VH: DVQLQESGPGLVKPSETLSLTCTVSGYSITSGYNWHWIRQFPGNGLEWMGYIHHSSITNYNPSLKSRITISRDTSKNQFSLKLSSVTAADTATFYCAREGYDYDWFAYWGQGTLVTVSS VL: DIVLTQSPDTQSVTPKESVTLSCRASQSISNNLHWYQQKSHESPKLLIKYASQSISGIPSRFSGSGSGTDFTLTINSVEAEDFAMYFCQQSKSWPFTFGQGTRLEIK | 758 | 0.000881 | 1.16e+06

Results, then the binder that gave them:

Row | Kd [pM] | koff [s⁻¹] | kon [M⁻¹ s⁻¹] | Binder
9 | 625 | 0.000827 | 1.32e+06 | 3F2-H3K3-IgG1 (antibody, V domains shown) VH: DVQLQESGPGLVKPSETLSLTCTVSGYSITSGYNWHWIRQFPGNGLEWMGYIHHSSITNYNPSLKSRITISRDTSKNQFSLKLSSVTAEDTATFYCAREGYDYDWFAYWGQGTLVTVSS VL: DIVLTQSPDTQSVTPKESVTLSCRASQSISNNLHWYQQKSHESPKLLIKYASQSISGIPSRFSGSGSGTDFTLTINSVEAEDFAMYFCQQSKSWPFTFGQGTRLEIK
10 | 690 | 0.000732 | 1.06e+06 | 3F2-H1K2-IgG1 (antibody, V domains shown) VH: QVQLQESGPGLVKPSETLSLTCTVSGYSITSGYNWHWIRQFPGNGLEWMGYIHHSSITNYNPSLKSRITISRDTSKNQFSLKLSSVTAADTATYYCAREGYDYDWFAYWGQGTLVTVSS VL: DIVLTQSPDFQSVTPKEKVTLSCRASQSISNNLHWYQQKPDESPKLLIKYASQSISGIPSRFSGSGSGTDFTLTINSVEAEDFAMYFCQQSKSWPFTFGQGTRLEIK
11 | 471 | 0.000626 | 1.33e+06 | 3F2-H4K1-IgG1 (antibody, V domains shown) VH: DVQLQESGPGLVKPSETLSLTCTVSGYSITSGYNWHWIRQFPGNKLEWMGYIHHSSITNYNPSLKSRITISRDTSKNQFFLQLSSVTAEDTATFYCAREGYDYDWFAYWGQGTLVTVSS VL: DIVLTQSPDFQSVTPKEKVTITCRASQSISNNLHWYQQKPDESPKLLIKYASQSISGIPSRFSGSGSGTDFTLTINSVEAEDFAMYFCQQSKSWPFTFGQGTRLEIK
12 | 502 | 0.000696 | 1.39e+06 | 3F2-H4K3-IgG1 (antibody, V domains shown) VH: DVQLQESGPGLVKPSETLSLTCTVSGYSITSGYNWHWIRQFPGNKLEWMGYIHHSSITNYNPSLKSRITISRDTSKNQFFLQLSSVTAEDTATFYCAREGYDYDWFAYWGQGTLVTVSS VL: DIVLTQSPDTQSVTPKESVTLSCRASQSISNNLHWYQQKSHESPKLLIKYASQSISGIPSRFSGSGSGTDFTLTINSVEAEDFAMYFCQQSKSWPFTFGQGTRLEIK
13 | 623 | 0.000753 | 1.21e+06 | 3F2-H3K2-IgG1 (antibody, V domains shown) VH: DVQLQESGPGLVKPSETLSLTCTVSGYSITSGYNWHWIRQFPGNGLEWMGYIHHSSITNYNPSLKSRITISRDTSKNQFSLKLSSVTAEDTATFYCAREGYDYDWFAYWGQGTLVTVSS VL: DIVLTQSPDFQSVTPKEKVTLSCRASQSISNNLHWYQQKPDESPKLLIKYASQSISGIPSRFSGSGSGTDFTLTINSVEAEDFAMYFCQQSKSWPFTFGQGTRLEIK
14 | 475 | 0.000617 | 1.3e+06 | 3F2-H4K2-IgG1 (antibody, V domains shown) VH: DVQLQESGPGLVKPSETLSLTCTVSGYSITSGYNWHWIRQFPGNKLEWMGYIHHSSITNYNPSLKSRITISRDTSKNQFFLQLSSVTAEDTATFYCAREGYDYDWFAYWGQGTLVTVSS VL: DIVLTQSPDFQSVTPKEKVTLSCRASQSISNNLHWYQQKPDESPKLLIKYASQSISGIPSRFSGSGSGTDFTLTINSVEAEDFAMYFCQQSKSWPFTFGQGTRLEIK
15 | 266 | 0.00043 | 1.62e+06 | 08-3F2-mHvKv-IgG1 (antibody, V domains shown) VH: DVQLQESGPDLVKPSQTLSLTCTVTGYSITSGYNWHWIRQFPGNKLEWMGYIHHSSITNYNPSLKSRISITRDTSKNQFFLQLSSVTTEDTATFYCAREGYDYDWFAYWGQGTLVTVSA VL: DIVLAQSPATLSVTPGDSVSLSCRASQSISNNLHWYQQKSHESPRLLIKYASQSISGIPSRFSGSGSGTDFTLSINSVETEDFGMYFCQQSKSWPFTFGSGTRLEIK
